Key:
[1] = target: T1, WW domain containing E3 ubiquitin protein ligase 1 (WWP1) (human, UniProt Q9H0M0 1-922, limits assumed); test: immunoprecipitation of exogenous PTEN from DU145 cells, mass spectrometry (FIG. 2A)
T1 construct: also called endogenous WWP1; WW domain-containing protein-1
Source text: (§1) FIG. 2A is a Western blot. Lysates from DU145 cells transfected with HA-PTEN were immunoprecipitated with an anti-PTEN antibody followed by mass-spectrometric peptide sequencing. WWP1 and NEDD4-1 were identified.
(§2) In order to identify the E3 ligases that induce PTEN atypical K27-linked poly-ubiquitination, exogenous PTEN was immunoprecipitated from DU145 cells, followed by identification of the proteins that interacted with PTEN by mass spectrometry (FIG. 2A; FIG. 18).

[2] = target: T2, ATP dependent RNA helicase A (human (endogenous protein of DU145 …, UniProt Q08211)); test: anti-PTEN immunoprecipitation from DU145 cells transfected with HA-PTEN, SDS-PAGE, mass-spectrometric peptide sequencing of the bands (association in the precipitate)
T2 construct: endogenous, identified by mass spectrometry
Source text: as §1, §2

[3] = target: T3, Poly [ADP-ribose] polymerase 1 (human (endogenous protein of DU145 …, UniProt P09874)); test: as above
T3 construct: endogenous, identified by mass spectrometry
Source text: as §1, §2

[4] = target: Isoform 2 of Telomere-associated protein RIF1; test: as above
Source text: as §1, §2

[5] = target: T4, Sperm-associated antigen 5 (human (endogenous protein of DU145 …, UniProt Q96R06)); test: as above
T4 construct: endogenous, identified by mass spectrometry
T4 sequence (looked up): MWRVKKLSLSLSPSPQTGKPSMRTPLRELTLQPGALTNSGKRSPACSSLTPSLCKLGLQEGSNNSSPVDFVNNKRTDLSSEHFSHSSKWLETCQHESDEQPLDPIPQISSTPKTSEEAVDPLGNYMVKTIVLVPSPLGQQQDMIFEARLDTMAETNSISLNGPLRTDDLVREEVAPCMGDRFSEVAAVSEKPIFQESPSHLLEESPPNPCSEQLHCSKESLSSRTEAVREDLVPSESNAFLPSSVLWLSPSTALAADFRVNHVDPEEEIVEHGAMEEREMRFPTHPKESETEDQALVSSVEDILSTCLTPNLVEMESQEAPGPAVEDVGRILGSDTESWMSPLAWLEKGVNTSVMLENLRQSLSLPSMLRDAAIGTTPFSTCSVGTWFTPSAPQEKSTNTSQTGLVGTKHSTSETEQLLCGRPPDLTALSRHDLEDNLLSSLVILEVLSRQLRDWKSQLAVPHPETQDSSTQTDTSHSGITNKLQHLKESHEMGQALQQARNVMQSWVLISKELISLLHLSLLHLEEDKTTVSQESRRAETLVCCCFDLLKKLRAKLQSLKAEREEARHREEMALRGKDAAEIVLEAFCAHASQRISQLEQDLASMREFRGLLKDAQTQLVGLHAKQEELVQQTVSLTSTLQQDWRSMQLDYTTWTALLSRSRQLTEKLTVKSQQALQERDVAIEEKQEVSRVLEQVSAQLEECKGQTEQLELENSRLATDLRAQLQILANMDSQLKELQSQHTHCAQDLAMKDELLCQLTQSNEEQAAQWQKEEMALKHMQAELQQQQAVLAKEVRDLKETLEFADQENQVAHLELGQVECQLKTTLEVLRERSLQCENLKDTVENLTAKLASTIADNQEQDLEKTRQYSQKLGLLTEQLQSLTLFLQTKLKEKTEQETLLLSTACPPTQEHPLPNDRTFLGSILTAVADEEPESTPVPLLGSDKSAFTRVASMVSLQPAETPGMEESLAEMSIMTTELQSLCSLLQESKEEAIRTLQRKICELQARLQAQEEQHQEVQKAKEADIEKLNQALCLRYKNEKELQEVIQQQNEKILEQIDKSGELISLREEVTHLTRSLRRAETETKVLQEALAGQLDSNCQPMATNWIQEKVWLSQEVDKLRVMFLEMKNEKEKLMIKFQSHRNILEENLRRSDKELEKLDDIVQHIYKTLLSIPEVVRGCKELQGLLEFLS
Source text: as §1, §2

Flag-WWP1 [6] = target: T5, Flag-WWP1 (Homo sapiens (Human), UniProt Q9H0M0 1-922); test: recombinant Flag-WWP1 incubated with immunopurified recombinant NEDD4-1, western blot (FIG. 2C)
T5 construct: also called full-length Flag-WWP1; recombinant Flag-WWP1; not shown: Flag tag
Experimental: FIG. 2C is a Western blot showing that WWP1 binds NEDD4-1 in vitro. Recombinant Flag-WWP1 were incubated with immunopurified recombinant NEDD4-1, and then analysed by western blot.

[7] = target: T1, WW domain containing E3 ubiquitin …; test: anti-PTEN immunoprecipitation from DU145 cells, western blot (FIG. 2B); both ligases found in the same complex
[8] = target: T6, Phosphatase And Tensin Homolog Deleted On Chromosome Ten (PTEN) (human, UniProt P60484 1-403); test: co-immunoprecipitation with anti-NEDD4 antibody from PWRE-1 cell lysates after 16 h normoxia (N) or hypoxia (H), western blot
T6 construct: also called endogenous PTEN; PTEN WT
Experimental: FIG. 13D is a Western blot showing that NEDD4-1 switches its interaction proteins under different physiological conditions. PWRE-1 cells were cultured in normoxic or hypoxic conditions for 16 hours. Total cell lysates were immunoprecipitated with anti-NEDD4 antibody, and then examined by western blot with indicated antibodies.
(§3) Western Blotting and Immunoprecipitation. For western blotting, cells were lysed in RIPA buffer (Boston BioProducts) supplemented with protease (Roche) and phosphatase (Roche) inhibitor. Proteins were separated on NuPAGE 4-12% Bis-Tris gradient gels (Invitrogen), transferred to polyvinylidine difluoride membranes (Immobilon P, Millipore) and the blots were probed with the indicated antibodies. For immunoprecipitation, PC3, 293T and MEF cells were transfected with the indicated expression vectors by using LIPOFECTAMIN 2000 (Life Technologies). 24 hours after transfection, cells were lysed in RIPA buffer with protease (Roche) and phosphatase (Roche) inhibitor. 500 μg of total lysates were pre-cleared for 30 minutes at 4° C., and then immunoprecipitated with anti-Myc (Cell Signaling Technology 9B11, 1:500), or anti-PTEN (Cell Signaling Technology 9559, 1:500) antibody overnight at 4° C. The Protein-A or Protein-G sepharose beads (GE Healthcare) were then added and incubated for another 2 hours. The immunoprecipitates were washed with RIPA buffer three times. […]

Flag-WWP1 [9] = target: T5, Flag-WWP1; test: co-immunoprecipitation: IP Flag, WB PTEN
[10] = target: the molecule itself; test: self-association of PTEN in Wwp1-/- against Wwp1+/+ MEFs, non-reducing/non-denaturing gel (FIG. 5F); similar results in Nedd4-/- MEFs (FIG. 5I)
Source text: Similar results were also obtained in Nedd4^{-/-} MEFs (FIG. 5I, FIG. 5J).
as §3, with “times. In denaturing conditions, standard Laemmli-Buffer with 5% final concentration of β-mercaptoethanol was added to the samples, which were then boiled and separated on NuPAGE 4-12% Bis-Tris gradient gels (Invitrogen).” for “times.”

[11] = target: T7, Flag-WWP1 ΔWW domain (deletion 341-547) (Homo sapiens (Human), UniProt Q9H0M0 1-922); test: co-immunoprecipitation from 293 cells: IP Flag, WB PTEN
T7 construct: The two kept ranges are counted on the 922-residue WWP1 entry; not shown: Flag tag
T7 sequence: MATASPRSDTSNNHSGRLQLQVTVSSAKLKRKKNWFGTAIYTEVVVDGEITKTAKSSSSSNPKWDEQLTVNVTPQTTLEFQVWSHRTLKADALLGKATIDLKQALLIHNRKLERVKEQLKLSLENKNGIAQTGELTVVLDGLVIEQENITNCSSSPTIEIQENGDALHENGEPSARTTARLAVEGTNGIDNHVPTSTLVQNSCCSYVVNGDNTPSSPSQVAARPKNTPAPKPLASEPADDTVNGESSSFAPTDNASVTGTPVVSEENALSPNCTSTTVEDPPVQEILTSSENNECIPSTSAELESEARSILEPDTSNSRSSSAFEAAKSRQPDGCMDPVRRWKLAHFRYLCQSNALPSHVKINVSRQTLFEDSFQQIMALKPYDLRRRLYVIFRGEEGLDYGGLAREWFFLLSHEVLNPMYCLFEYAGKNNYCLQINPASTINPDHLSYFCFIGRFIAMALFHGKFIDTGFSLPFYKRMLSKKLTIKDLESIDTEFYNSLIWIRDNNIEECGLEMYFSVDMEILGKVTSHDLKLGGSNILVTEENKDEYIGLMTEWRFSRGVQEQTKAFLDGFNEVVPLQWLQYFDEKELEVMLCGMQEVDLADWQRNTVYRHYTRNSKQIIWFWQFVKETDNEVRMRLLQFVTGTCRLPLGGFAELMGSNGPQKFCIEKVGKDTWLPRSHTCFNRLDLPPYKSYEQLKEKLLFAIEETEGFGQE
Experimental: Lysates of 293 cells transfected with indicated constructs were analysed by immunoprecipitation and/or western blot with indicated antibodies.
as §3

Isoform 2 of Telomere-associated protein RIF1, sequence (chain, as listed by the source limits assumed): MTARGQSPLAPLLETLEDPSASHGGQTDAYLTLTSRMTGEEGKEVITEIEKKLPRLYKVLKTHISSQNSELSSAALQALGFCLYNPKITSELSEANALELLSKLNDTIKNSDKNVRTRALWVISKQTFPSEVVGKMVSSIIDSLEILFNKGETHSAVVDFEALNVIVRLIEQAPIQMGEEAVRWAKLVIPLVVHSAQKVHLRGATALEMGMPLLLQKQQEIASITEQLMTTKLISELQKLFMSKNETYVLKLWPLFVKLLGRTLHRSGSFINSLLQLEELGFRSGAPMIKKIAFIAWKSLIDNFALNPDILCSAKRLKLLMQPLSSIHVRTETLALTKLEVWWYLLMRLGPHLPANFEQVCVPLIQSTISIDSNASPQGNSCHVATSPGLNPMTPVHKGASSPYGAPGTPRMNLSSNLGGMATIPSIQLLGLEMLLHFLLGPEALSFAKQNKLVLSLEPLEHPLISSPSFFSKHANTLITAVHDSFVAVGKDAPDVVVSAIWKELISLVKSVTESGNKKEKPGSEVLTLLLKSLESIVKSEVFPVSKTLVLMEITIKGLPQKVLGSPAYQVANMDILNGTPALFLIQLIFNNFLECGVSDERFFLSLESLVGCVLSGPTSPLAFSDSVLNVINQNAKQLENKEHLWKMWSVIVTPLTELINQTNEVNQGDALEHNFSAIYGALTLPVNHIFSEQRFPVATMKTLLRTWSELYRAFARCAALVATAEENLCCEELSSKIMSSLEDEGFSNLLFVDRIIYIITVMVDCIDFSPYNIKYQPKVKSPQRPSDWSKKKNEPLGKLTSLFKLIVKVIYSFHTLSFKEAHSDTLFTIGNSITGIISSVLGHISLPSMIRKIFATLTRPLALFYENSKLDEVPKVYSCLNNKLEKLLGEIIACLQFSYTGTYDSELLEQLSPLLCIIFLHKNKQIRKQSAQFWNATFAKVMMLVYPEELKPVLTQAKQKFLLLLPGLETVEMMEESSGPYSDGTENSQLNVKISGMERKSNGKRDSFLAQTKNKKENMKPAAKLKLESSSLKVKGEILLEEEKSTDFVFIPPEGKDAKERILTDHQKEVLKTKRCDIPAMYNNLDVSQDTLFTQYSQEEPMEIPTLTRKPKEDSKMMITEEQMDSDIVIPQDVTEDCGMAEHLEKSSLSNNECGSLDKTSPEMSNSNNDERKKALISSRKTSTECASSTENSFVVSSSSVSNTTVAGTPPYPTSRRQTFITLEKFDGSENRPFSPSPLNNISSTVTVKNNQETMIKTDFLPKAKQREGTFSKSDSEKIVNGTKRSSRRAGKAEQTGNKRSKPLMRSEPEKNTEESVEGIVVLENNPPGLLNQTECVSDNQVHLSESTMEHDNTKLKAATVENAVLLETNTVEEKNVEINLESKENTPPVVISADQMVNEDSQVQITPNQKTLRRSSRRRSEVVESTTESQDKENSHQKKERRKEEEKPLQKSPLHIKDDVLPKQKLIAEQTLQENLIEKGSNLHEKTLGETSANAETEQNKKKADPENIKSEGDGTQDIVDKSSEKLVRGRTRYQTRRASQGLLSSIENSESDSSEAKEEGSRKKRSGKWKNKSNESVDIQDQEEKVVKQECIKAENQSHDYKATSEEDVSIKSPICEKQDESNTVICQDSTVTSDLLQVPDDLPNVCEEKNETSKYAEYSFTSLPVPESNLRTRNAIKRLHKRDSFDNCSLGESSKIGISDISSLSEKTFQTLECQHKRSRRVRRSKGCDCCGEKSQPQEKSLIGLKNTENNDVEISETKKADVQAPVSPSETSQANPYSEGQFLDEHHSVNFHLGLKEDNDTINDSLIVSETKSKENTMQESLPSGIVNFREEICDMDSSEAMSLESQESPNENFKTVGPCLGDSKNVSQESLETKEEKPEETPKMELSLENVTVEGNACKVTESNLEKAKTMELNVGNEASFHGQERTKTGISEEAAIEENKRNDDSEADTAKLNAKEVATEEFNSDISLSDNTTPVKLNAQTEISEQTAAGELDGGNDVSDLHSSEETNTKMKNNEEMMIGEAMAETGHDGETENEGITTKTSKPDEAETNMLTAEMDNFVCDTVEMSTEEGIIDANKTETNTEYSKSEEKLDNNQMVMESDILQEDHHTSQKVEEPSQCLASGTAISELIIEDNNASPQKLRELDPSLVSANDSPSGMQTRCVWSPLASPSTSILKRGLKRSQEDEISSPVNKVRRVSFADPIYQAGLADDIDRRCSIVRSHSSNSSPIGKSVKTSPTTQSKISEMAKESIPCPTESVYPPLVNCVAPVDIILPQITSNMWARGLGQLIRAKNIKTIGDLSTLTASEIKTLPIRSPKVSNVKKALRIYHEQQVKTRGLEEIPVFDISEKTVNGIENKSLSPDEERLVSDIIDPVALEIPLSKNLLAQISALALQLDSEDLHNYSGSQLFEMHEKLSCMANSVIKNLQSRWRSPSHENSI
T2 sequence (Q08211 whole entry): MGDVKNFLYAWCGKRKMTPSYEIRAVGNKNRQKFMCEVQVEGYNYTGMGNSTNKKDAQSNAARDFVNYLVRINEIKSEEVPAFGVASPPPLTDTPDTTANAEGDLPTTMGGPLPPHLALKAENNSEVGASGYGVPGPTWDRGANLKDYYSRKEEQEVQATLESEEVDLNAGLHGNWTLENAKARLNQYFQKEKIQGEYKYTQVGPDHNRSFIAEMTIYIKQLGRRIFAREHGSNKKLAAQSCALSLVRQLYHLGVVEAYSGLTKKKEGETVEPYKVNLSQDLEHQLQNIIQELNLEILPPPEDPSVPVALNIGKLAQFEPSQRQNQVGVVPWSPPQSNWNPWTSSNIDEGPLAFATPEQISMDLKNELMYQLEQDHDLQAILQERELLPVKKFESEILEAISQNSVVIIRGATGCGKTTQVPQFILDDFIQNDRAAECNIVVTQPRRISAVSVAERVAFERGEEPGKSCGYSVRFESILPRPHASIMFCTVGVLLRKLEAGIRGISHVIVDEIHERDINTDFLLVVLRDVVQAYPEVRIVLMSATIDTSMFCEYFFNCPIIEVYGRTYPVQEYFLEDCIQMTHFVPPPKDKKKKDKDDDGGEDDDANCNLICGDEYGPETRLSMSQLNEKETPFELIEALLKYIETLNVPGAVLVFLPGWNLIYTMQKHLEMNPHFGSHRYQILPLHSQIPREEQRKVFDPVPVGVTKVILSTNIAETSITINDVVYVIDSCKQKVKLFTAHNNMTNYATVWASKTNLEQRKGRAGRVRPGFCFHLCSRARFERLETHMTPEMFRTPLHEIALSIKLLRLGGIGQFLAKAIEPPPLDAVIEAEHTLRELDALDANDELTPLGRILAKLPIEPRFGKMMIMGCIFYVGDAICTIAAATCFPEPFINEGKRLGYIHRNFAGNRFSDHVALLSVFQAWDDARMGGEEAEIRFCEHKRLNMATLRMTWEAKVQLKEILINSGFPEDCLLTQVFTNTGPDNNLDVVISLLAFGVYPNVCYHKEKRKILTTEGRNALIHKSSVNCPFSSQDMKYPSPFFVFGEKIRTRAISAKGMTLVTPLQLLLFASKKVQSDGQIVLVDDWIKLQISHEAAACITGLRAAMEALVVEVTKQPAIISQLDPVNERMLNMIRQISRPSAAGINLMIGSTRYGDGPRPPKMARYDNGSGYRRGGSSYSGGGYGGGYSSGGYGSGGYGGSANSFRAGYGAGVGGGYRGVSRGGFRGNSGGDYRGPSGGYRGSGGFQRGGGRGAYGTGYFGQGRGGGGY
T3 sequence (P09874 2-1014 limits assumed): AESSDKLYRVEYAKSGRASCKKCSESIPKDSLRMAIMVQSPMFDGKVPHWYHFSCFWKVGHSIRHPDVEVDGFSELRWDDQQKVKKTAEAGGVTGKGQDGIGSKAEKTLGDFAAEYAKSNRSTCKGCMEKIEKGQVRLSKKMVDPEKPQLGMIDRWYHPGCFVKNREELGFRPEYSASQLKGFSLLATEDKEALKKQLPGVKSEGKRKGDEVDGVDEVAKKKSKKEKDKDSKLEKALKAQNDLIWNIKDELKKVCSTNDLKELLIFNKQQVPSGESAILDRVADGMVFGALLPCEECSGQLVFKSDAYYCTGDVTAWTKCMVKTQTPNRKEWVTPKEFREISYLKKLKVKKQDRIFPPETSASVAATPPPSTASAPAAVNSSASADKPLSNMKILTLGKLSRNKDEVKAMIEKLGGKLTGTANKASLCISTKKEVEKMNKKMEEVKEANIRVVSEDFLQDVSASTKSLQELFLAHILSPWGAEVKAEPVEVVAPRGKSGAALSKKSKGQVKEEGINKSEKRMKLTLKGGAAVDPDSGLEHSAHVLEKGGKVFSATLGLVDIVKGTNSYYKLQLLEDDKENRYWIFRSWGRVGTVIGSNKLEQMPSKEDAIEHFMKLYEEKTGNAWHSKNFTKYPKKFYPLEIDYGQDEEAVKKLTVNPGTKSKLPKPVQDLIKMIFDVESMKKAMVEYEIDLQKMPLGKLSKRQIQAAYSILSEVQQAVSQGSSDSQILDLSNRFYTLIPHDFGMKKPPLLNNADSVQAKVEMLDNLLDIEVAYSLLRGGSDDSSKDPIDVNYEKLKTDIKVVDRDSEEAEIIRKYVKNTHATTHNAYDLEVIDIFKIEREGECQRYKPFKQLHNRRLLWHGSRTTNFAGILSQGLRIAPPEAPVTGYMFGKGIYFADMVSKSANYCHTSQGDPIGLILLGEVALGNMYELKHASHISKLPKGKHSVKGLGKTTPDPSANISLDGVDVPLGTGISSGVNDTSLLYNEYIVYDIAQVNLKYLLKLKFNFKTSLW

B1: HA-PTEN (enzyme)
chain: not shown
notes: Expressed in DU145 cells and immunoprecipitated with anti-PTEN antibody for mass spectrometry; also called exogenous PTEN; pcDNA3-HA-PTEN; not shown: HA tag
Question: Does B1 bind [1]?
Answer: binds

Question: Does B1 bind [2]?
Answer: binds

Question: Does B1 bind [3]?
Answer: binds

Question: Does B1 bind [4]?
Answer: binds

Question: Does B1 bind [5]?
Answer: binds

B2: Neural Precursor Cell Expressed Developmentally Down-Regulated Protein 4 polypeptide (NEDD4-1) (enzyme)
chain: MATCAVEVFGLLEDEENSRIVRVRVIAGIGLAKKDILGASDPYVRVTLYDPMNGVLTSVQTKTIKKSLNPKWNEEILFRVHPQQHRLLFEVFDENRLTRDDFLGQVDVPLYPLPTENPRLERPYTFKDFVLHPRSHKSRVKGYLRLKMTYLPKTSGSEDDNAEQAEELEPGWVVLDQPDAACHLQQQQEPSPLPPGWEERQDILGRTYYVNHESRRTQWKRPTPQDNLTDAENGNIQLQAQRAFTTRRQISEETESVDNRESSENWEIIREDEATMYSNQAFPSPPPSSNLDVPTHLAEELNARLTIFGNSAVSQPASSSNHSSRRGSLQAYTFEEQPTLPVLLPTSSGLPPGWEEKQDERGRSYYVDHNSRTTTWTKPTVQATVETSQLTSSQSSAGPQSQASTSDSGQQVTQPSEIEQGFLPKGWEVRHAPNGRPFFIDHNTKTTTWEDPRLKIPAHLRGKTSLDTSNDLGPLPPGWEERTHTDGRIFYINHNIKRTQWEDPRLENVAITGPAVPYSRDYKRKYEFFRRKLKKQNDIPNKFEMKLRRATVLEDSYRRIMGVKRADFLKARLWIEFDGEKGLDYGGVAREWFFLISKEMFNPYYGLFEYSATDNYTLQINPNSGLCNEDHLSYFKFIGRVAGMAVYHGKLLDGFFIRPFYKMMLHKPITLHDMESVDSEYYNSLRWILENDPTELDLRFIIDEELFGQTHQHELKNGGSEIVVTNKNKKEYIYLVIQWRFVNRIQKQMAAFKEGFFELIPQDLIKIFDENELELLMCGLGDVDVNDWREHTKYKNGYSANHQVIQWFWKAVLMMDSEKRIRLLQFVTGTSRVPMNGFAELYGSNGPQSFTVEQWGTPEKLPRAHTCFNRLDLPPYESFEELWDKLQMAIENTQGFDGVD
notes: also called endogenous NEDD4-1; immunopurified recombinant NEDD4-1
Question: Does B2 bind (Flag-WWP1 [6])?
Answer: binds

Question: Does B2 bind [7]?
Answer: binds

Question: Does B2 bind [8]?
Answer: binds

B3: PTEN 4E mutant (enzyme)
chain: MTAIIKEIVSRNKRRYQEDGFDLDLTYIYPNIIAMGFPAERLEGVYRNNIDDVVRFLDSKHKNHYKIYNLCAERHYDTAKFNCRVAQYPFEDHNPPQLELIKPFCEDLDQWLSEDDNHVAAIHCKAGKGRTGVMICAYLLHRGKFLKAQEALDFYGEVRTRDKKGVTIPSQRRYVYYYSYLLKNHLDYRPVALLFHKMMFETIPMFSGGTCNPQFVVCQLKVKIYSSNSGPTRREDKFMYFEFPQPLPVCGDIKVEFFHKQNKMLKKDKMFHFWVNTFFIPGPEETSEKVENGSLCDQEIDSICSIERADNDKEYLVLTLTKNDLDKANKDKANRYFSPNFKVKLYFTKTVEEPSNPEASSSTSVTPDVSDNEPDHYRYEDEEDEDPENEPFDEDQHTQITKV
notes: also called pcDNA3-Myc-PTEN 4E; phosphomimetic 4E; not shown: Myc tag by the plasmid list
Question: Does B3 bind (Flag-WWP1 [9])?
Answer: no binding

B4: PTEN of MEFs (mouse) (enzyme, UniProt O08586 2-403, looked up)
chain: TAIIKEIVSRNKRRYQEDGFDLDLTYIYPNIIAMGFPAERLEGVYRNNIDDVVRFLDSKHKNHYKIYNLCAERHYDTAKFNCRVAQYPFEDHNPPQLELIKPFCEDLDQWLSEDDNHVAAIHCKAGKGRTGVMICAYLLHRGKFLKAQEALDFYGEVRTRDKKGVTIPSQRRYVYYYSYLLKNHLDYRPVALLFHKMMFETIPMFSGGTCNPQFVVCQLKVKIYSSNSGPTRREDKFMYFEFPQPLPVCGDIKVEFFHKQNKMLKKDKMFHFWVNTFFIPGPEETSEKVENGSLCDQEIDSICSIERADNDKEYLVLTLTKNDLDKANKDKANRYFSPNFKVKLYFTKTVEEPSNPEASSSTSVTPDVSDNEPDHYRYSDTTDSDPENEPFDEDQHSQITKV
notes: also called PTEN in Wwp1+/+ and Wwp1-/- MEFs; PTEN in Nedd4+/+ and Nedd4-/- MEFs
Question: Does B4 bind [10]?
Answer: binds

B5: Myc-PTEN (enzyme)
chain: not shown
notes: also called pcDNA3-Myc-PTEN; not shown: Myc tag
Question: Does B5 bind [11]?
Answer: no binding

Reference: US20190374506A1 (BETH ISREAL DEACONESS MEDICAL CENTER, published 2019)
